Measurements published in publication PMC6351565.

Columns and labels:
[1] = biological target: M2345/WT IRSp53 heterodimer (human (from the printed UniProt entry)) (UniProt Q9UQB8); assay: co-IP; homo- and heterodimers of wild-type and M2345 IRSp53 (FLAG and STREP tags, single plasmid with IRES) from HEK293T cells; endogenous 14-3-3 detected by blot, relative to WT-IRSp53-FLAG/WT-IRSp53-STREP
[2] = biological target: WT/M2345 IRSp53 heterodimer (human (from the printed UniProt entry)) (UniProt Q9UQB8); assay: as above
Sequence of WT/M2345 IRSp53 heterodimer (human (Q9UQB8 other isoform, or with tags, fused parts or gaps T340A | T360A | S366A | 452SSST455 -> AAAA, chain 1 of 2): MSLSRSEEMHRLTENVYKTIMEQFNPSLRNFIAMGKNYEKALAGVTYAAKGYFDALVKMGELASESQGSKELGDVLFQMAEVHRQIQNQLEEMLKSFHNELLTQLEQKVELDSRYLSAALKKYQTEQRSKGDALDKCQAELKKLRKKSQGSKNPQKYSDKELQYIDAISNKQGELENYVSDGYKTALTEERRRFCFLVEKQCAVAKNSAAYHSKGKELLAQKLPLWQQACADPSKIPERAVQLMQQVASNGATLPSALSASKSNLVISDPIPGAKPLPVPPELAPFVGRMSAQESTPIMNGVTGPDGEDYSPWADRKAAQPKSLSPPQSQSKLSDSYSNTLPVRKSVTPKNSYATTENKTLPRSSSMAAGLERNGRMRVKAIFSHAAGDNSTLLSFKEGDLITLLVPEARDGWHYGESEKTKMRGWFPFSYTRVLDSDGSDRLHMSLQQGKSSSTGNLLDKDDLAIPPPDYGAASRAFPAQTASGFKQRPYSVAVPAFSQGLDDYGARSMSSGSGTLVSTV
Sequence of WT/M2345 IRSp53 heterodimer (human (Q9UQB8 other isoform, or with tags, fused parts or gaps, chain 2 of 2): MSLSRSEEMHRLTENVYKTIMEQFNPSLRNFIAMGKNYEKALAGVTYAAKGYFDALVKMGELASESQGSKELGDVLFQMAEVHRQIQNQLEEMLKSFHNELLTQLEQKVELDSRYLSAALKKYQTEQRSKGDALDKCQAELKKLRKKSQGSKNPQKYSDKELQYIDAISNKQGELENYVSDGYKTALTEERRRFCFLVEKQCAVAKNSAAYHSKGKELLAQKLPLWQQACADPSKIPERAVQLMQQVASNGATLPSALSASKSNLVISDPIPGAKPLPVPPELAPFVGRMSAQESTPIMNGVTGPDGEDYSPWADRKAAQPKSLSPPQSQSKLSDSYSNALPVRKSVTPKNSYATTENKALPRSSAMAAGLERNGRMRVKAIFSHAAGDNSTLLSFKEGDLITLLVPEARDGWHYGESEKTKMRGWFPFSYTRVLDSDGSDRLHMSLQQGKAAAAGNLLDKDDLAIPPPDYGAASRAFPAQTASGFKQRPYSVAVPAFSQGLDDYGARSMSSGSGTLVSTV

Sequence of endogenous 14-3-3 (all isoforms included) (P27348 whole entry, canonical isoform): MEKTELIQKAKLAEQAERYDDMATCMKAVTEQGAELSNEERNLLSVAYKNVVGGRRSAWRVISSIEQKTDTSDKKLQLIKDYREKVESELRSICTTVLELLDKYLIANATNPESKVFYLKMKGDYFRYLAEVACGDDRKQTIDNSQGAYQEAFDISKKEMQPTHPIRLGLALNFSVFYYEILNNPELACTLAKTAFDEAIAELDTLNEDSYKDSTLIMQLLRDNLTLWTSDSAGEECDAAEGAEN

Substance “endogenous 14-3-3 (all isoforms included) (from UniProt P27348 1-245) (natural protein)” has a percent of the amount that coimmunoprecipitates with WT/WT IRSp53 [1] of 50% and a percent of the amount that coimmunoprecipitates with WT/WT IRSp53 [2] of 50%.
